Reference: the DeepSol protein solubility set

Test: soluble on expression in E. coli; label from the status in PepcDB or PDB records

Row | Sequence | soluble on expression in E. coli
1 | MSNHQKRLSVPNSWPVERKTATFTVKAGAGPHGESGVPLLIVLRDVLGYADNRKEARYALNEDNVLINGKAISDEERPVGMFDILAFTEREEYYRVFPGEGGRLALTAIDPDAAQSKLGKIVTKTHVSGGDVQLGLHDGETLIVEDDQTYDAGDSIVVGNEDGEVVAHFEYEEGALVTAVDGAHAGEVGEVEEIQVTPGSAQNNVIVSQDEGEGFETVEEYVVVIDENFTGDDELEHHHHHH | soluble
2 | MSNSSMSVVILAAGKGTRMYSDLPKVLHPLAGKPMVQHVIDAAMKLGAQHVHLVYGHGGELLKKTLADPSLNWVLQAEQLGTGHAMQQAAPHFADDEDILMLYGDVPLISVDTLQRLLAAKPEGGIGLLTVKLDNPSGYGRIVRENGDVVGIVEHKDASDAQREINEINTGILVANGRDLKRWLSLLDNNNAQGEFYITDIIALAHADGKKIATVHPTRLSEVEGVNNRLQLSALERVFQTEQAEKLLLAGVMLLDPSRFDLRGELTHGRDITIDTNVIIEGHVILGDRVRIGTGCVLKNCVIGDDSEISPYTVLEDARLDANCTVGPFARLRPGAELAEGAHVGNFVEIKKARLGKGSKAGHLSYLGDAEIGAGVNIGAGTITCNYDGANKFKTIIGDDVFVGSDTQLVAPVTVANGATIGAGTTVTRDVAENELVISRVKQVHIQGWKRPVKKK | soluble
3 | MSNTLFDDIFQVSEVDPGRYNKVCRIEAASTTQDQCKLTLDINVELFPVAAQDSLTVTIASSLNLEDTPANDSSATRSWRPPQAGDRSLADDYDYVMYGTAYKFEEVSKDLIAVYYSFGGLLMRLEGNYRNLNNLKQENAYLLIRR | soluble
4 | MSNTPIELKGSSFTLSVVHLHEAEPEVIRQALEDKIAQAPAFLKHAPVVINVSGLESPVNWPELHKIVTSTGLRIIGVSGCKDASLKVEIDRMGLPLLTEGKEKAVRPAPVEPATPSEPPQNANPITKTRLIDVPVRSGQRIYAPQCDLIVTSHVSAGAELIADGNIHVYGMMRGRALAGASGDREAQIFCTHLTAELVSIAGVYWLSDKIPAEFYGKAARLRLADNALTVQPLN | not soluble
5 | MSNTQHKLDKTRPPRVQITYDVETGDAETAKELPLVIGVLGEYSSSEKPLRERKFISIDKDNFDEVMASMSPTAHFMVDSVIPGNEGKLDVELRFSCKDDFSPDNVIQQVECLRKLSELRLHLCDLRNRAASNEKLKEKLQELLVTTNGNPENDESKE | not soluble
6 | MSNTVATMINKRNIMRNYIKIGVAGPVGAGKTALIEKLTREIASKYSVAVITNDIYTQEDAEFLTKNSLLPPERIMGVETGGCPHTAIREDASMNLEAVDEMVTRFPDVEIVFIESGGDNLSATFSPDLADVTIFVIDVAQGEKIPRKGGPGITRSDLLVINKTDLAPFVGADLSVMERDARRMRNGQPFIFTNLMKKENLDGVIGWIEKYALLKNVEEPASLVRLEHHHHHH | soluble
7 | MSPANRVVQPYSKEDLAIQVSQLSGSRAAIWKALDSIDSWSYRVFDVQAAMSGDDYLSLSTQTHGGSLLITMYALLCMHDFLQKFKIDEQIALNWISAVEASYHGNPYHNSMHAADVLQITDFIITQGGLAKRCDLSDIQVFSALLAASIHDFDHPGINNNFHIKTGSYLATLYNDRSVLENLHVSSVFELMKNPAFNILASFSDEQHHEVRETMIEMVLATDMGSHGKYVASLKGKMQEHSSFTQTAEQNLCLAIALKMADISNCGRPLDIYLRWGAKVSDEFYQQGDRERNLGLECSPFMDRLQPSLAKSQIAFMNYIITPFFEQVAELLPDMRFAVALVEENKAYWANHDDS | not soluble
8 | MSPEEVKARGWKELDVILVTGDAYVDHSSFGTAIIGRVLEDAGFRVGIIAQPRWENPEDFKKLGKPRLFFSVSAGNTDSMVSNLTPGLKPRNKDAYSPGGKTGLRPNRAAIIYSNRIKEAFPDMPIVLGGIEASMRRFAHYDYLSDKVRQSILADAPADLVVYGMGELQIVEIAKRLQAGEDIKGIRDISGTVWKMEVKAWKELKGKGKEKAGEQDESENATEEVAKDKSLDPAEFFKEYVEIPSFSEVSQDKAVFAKAFRTYFLEQNPVTGKGIVQPHPKTIIIQNKPMRPLTEAELDHVYELPYTGETHPSYTEPVPALEMVKFSLTTHRGCF | not soluble
9 | MSPENKICMEQSEDGDLDAGDELFEEVDGDGKGEIFANRELLNIDHVPDENRIVGRDEHITELANEIGPAVTGSPPNSVILYGKTGSGKSLVANHVMERARREAQRRDRRLATVTVDCAQSRGEADTVQTIADKINRSTSGVTVPTRGISTNEYYNRLWQILGTEYDAALITLDEVDRLSDDDILMILSRAREAGKVDVPIGIISISNKVNFREQMTERVKSSLGHNEMIFDPYDGEQLRQILENRKDAFQEDILMPGVIPKTAALAAQRHGDARKAIRLLRHAGDYAKTNNIGTVKESHLELAQEQAEVERLKELISGLPPHSKYVLYALANLTDGTTNSNDWFRTTVIYDVYEEVCKTEATDTLTTDTIRGLLNELAFLEITESNQEHGGMGKGTYKEHRLLWDPNVVFKMNPGSAQVDTDR | not soluble
10 | MSPTLQDARLLWDFLGQGRCHVPCELLVVCGSYDLRVCDHACELLERGLAERLLFTGNTGHWTRHLWVEPEAELFARHARARGVSDSLIVIEPRATNFAENIAFARELFPDLRRATFVTKPNSIRRVALTLPVRWPGLEGHVDAPDYAFPDGISNLVGVLGVIDEMVGDLDRIMRYPALGFQVACPIPAQVMDAWERLVARGFDRHLVNPPRLEHHHHHH | soluble
11 | MSPTLTHLALHVPDLDACIAFYETFCGMRVIHRRPGKGSQIVWMAEPGQEQRFIFVIMPGGQPRNLASDDYSHFGFALSSRAAVDDLARRAEAAGCLVWAPRDEPYPVGYYCGLRDPAGNYVEFSYGQPLGPGSEALPIP | not soluble
12 | MSQANANFLDNSKVSANKTAESGQLKEFRTPPHNLAIEQAVLAALMTVAESFEQVNDLLKENDFYATRHKYIFRAIEKLAQENSPYDAVLVNDWLLKQNLLDAIGGEEYLMQLMADSPSSFYNLETYASKIKEFSTLRSMIKVSSDILQNAYDTKGRPVSEILDLAETSIFSLAEQHNNNKKDAGPKSISSVTADVISKLDELSKLDGNITGLTTGFLELDNKTYGMQSGDMIIVAARPSMGKTTFAMNLVESVLFNCNLPALVFSMEMPADSIAMRLISSYGKVHQGHLRSGKLDGDEWSKVTGTILQLQEKHLYIDDSSALPPTELRARARRIAKQHGGKLGCIMIDYLQLMKVPGMGDNRVGEIGEISRSLKALAKEMDCPVIALSQLNRSLENRPNKRPVMSDLRESGAIEQDADLIMFIYRDEVYNKESKEAGTAEIIIGKQRNGPIGTVRLAFEGQYTRFSNLSPEYYSQYDDEE | not soluble
13 | MSQLNDSDIILFEYNFHYQNIRSKNTLDIAFGIDRNFLFGCGVAIASILLNNREISCEFHVFTDYISDKDKLYFSDLAKQYNSRINIYVINCDKLKSLPSTKNWTYATYFRFIIADYFYHKHEKILYLDADIACKGSIKELLDYQFSTNEIAAVVAERDVEWWQNRASVLTTPQLASGYFNAGFLLINIDEWNLNNISSKAIEMLRDPDWVSKITHLDQDVLNVLLNGKVKFISEKYNTRYSINYELKDKVDNPVNDDTVFIHYVGPTKPWHEWADYPVSRSFLIAKAASPWSKEDLLKPVNSNQYRYCAKHKFKQKHYMAGIFNYLKYYKEKCF | not soluble
14 | MSQPSGPPIGFSNPDYIPPKALDLLKPALTIRAPPEETGMLGELQEDVLQVLSLPCRHTNACLPACLQSLPILCSF | soluble
15 | MSQQELFFEVRRNRSHIYLDAEESHSVMELKLMLAGITRDPVNHMELWKLDEDGNKSQLLHDTATLSDAGFSSTNAKAQCPAALGLRLTNAEEHLTISDVSTAPPIPDTMRQEQAPQE | not soluble
16 | MSQSYHRPRPAGMAGAILDKQASKFNDVEAGYLLEWIRDLTKEDFDCEASRDNFREQLKDGQRLCKLVNAIKAGSVKKIMKPISNFNCLENINQFSTAARSLGVKDEETFQSVDLFDGRDLFSVTVTLQSLARKVEKLGITPPKQVSKDQIVNQ | not soluble
17 | MSQWYELQQLDSKFLEQVHQLYDDSFPMEIRQYLAQWLEKQDWEHAANDVSFATIRFHDLLSQLDDQYSRFSLENNFLLQHNIRKSKRNLQDNFQEDPIQMSMIIYSCLKEERKILENAQRFNQAQSGNIQSTVMLDKQKELDSKVRNVKDKVMCIEHEIKSLEDLQDEYDFKCKTLQNREHETNGVAKSDQKQEQLLLKKMYLMLDNKRKEVVHKIIELLNVTELTQNALINDELVEWKRRQQSACIGGPPNACLDQLQNWFTIVAESLQQVRQQLKKLEELEQKYTYEHDPITKNKQVLWDRTFSLFQQLIQSSFVVERQPCMPTHPQRPLVLKTGVQFTVKLRLLVKLQELNYNLKVKVLFDKDVNERNTVKGFRKFNILGTHTKVMNMEESTNGSLAAEFRHLQLKEQKNAGTRTNEGPLIVTEELHSLSFETQLCQPGLVIDLETTSLPVVVISNVSQLPSGWASILWYNMLVAEPRNLSFFLTPPCARWAQLSEVLSWQFSSVTKRGLNVDQLNMLGEKLLGPNASPDGLIPWTRFCKENINDKNFPFWLWIESILELIKKHLLPLWNDGCIMGFISKERERALLKDQQPGTFLLRFSESSREGAITFTWVERSQNGGEPDFHAVEPYTKKELSAVTFPDIIRNYKVMAAENIPENPLKYLYPNIDKDHAFGKYYSR | soluble
18 | MSRAEFIRFLQVLEEDLPFRALFQEADPEEILKLADQHGFIFSDEIKGRFLNRWAGVYFCPFANDVGRLCPKMVPEGFSTLLHYSQTTCTKEDKVERFDFRAGGYYEGVKAVTG | not soluble
19 | MSRGSSAGFDRHITIFSPEGRVYQVEYAFKAINSTNLTAVAVKGADAAVIAVQKRVPDSLIVADTVTSVYQISQSVGCCAIGMIPDAKFQIKRAQGEAASWKYKNGYDMPCELLAKKMADLNQYYTQNAEMRSLGCALLFISYDDEKGPEVYRVDPAGYYRGMKGVSVGVKQLPATSFLEKKIKKKSELTSTEAIELAIEALQTSLGIDVRSKDLEVVVVTKDNSKFTKLTSDQVEHHLNQIANRD | not soluble
20 | MSRGYYRTEEEIVQDKVLHRDPGIIEENYASKPPSRRSSSNTNPDSLVNQKHAQPLPSPLHSPVKSVTGSSKNQSPKMAPVRSNSRGSSASSEEDIGTRSFSISVLKDSGTKVEIMLKAHGLRKKKGFINSLVTVFKKPSQPSRLLSNGKFTEFVLTEHALRFLLEVKTDKKKKKGNGNRLDTFLCEVKRFPSDVNPDSAEFEVLEPASGEAFILLTLIKTGNLSTNWKEFLDTHGTLDVSTI | soluble
21 | MSRLQLAIEERDEAIARAKHMEMSLKVLENINPEENDMTLQELLNRINNADTGIAIQKNGAIIVDRIYKTKECKMRITAEEMSALIEERDAALSKCKRLEQELHHVKEQNQTSANNMRHLTAENNQERALKAKLLSMQQARETAVQQYKKLEEEIQTLRVYYSLHKSLSQEENLKDQFNYTLSTYEEALKNRENIVSITQQQNEELATQLQQALTERANMELQLQHAREASQVANEKVQKLERLVDVLRKKVGTGTMRTVI | soluble
22 | MSRLVIPSHSPNEEGNVVRVTPESAGWEYVGFEVYVLAKGQTLRKETKDQEACLVLLKGKANISTKLERWEQIGLRMDVSEKVPPYSVYIPSNDFYEVQAVTDLELAVCLAPGKGTYPARLIPPSEVGVEIRGAGNIERRVHNILPESQPADSLLVVEVFTPEGNWSSYPPHKHDQDNLPHESYLEETYYHKINPDHGFMVQRVYTDDRSIDETMVVKNGDVVLVPKGYHPVSAPPGYEGYYLNVMAGPVRTWKFHNDPDHEWVMESKLAAKQK | not soluble
